Data on four molecules can be found in US11091559B2, “Anti-ALK antibodies and methods for use thereof” (Celldex Therapeutics, Inc., priority 2015, dated 2021).

Numbering of substitutions follows the chain as printed.

Data set [1] deals with human ALK (hALK, purified ALK protein) (Homo sapiens, UniProt Q9UM73). In words: Monovalent affinity of humanized antibodies, BLitz System, human ALK. It is filed as binding. The following applies: BLitz, purified ALK protein at 70 μg/mL, single binding site fit; antibody by plate position of Table 19. Here is the method:
The humanized ALK antibodies designed in Example 1 were tested for monovalent affinity, wherein the kinetic data are fit to a single binding site equation to obtain relative affinity values.
Kinetic measurements of the monovalent affinity of the 96 humanized ALK antibody variants (Ab351-Ab446) were collected. Affinity ranking was performed using a BLitz® System (ForteBio, Menlo Park, Calif.). Humanized anti-ALK antibodies were immobilized at 0.5 mg/mL using Protein A tips. Once baseline stability was ensured, purified ALK proteins at 70 μg/mL were added. The resulting kinetic data were fit to a single binding site equation, from which the quoted monovalent KD values were derived.
Amino acid residues that differ between rat ALK and mouse ALK are boxed. KD values for both NB1 (human) cells and Neuro2a (mouse) cells were also determined.

The target in data set [2] is C-terminal region of human ALK ECD (T637-S1038) (Homo sapiens, UniProt Q9UM73). As to the kind of experiment: Competitive binding assay (epitope binning) by flow cytometry. The following applies: antibodies to the C-terminal region. On the procedure:
Antibodies that bind to the C-terminal region of human ALK ECD (T637-S1038) were further characterized using a competitive binding assay. A pairwise matrix approach was used whereby each antibody was fluorescently labeled and tested for its ability to bind to ALK-expressing cells pre-incubated with an unlabeled antibody. The ability of both antibodies to bind the C-terminal domain simultaneously was tested via flow cytometry. If both antibodies bound simultaneously, they were put into different bins and considered to belong to a separate epitope class.

Data set [3] deals with ALK (basal phosphorylation in NB1 cells). As to the kind of experiment: Western blot of ALK phosphorylation in NB1 cells. It is filed as cell-based, human. The following applies: effect in words. On the procedure:
Lysed cells were subjected to SDS-PAGE, transferred to nitrocellulose and immunoblotted with antibodies against total, and phospho-specific ALK, AKT, and MAPK. FIG. 4B depicts an ELISA of NB1 cells grown in media with reduced serum and treated with 30-100 nM of each antibody for 1-2 hours. Cell lysates were incubated on ELISA plates with an anti-ALK antibody, followed by incubation with a pan phosphotyrosine antibody coupled to HRP.
Cell lysates were subjected to SDS-PAGE and transferred to nitrocellulose. Immunoblotting was performed with antibodies against total, and phospho-specific ALK, AKT, and MAPK (purchased from Cell Signaling and utilized per manufacturer's instructions). HRP (horse radish peroxidase)-conjugated secondary antibodies (Thermo Scientific, Waltham, Mass.) were used along with Supersignal West Pico Chemiluminescent Substrate (Thermo Scientific, Waltham, Mass.) to image blots.
Anti-ALK monoclonal antibodies generated in Example 1 were evaluated via Western blotting for their ability to activate or inhibit basal levels of ALK phosphorylation in NB1 cells (FIG. 4A). A subset of ALK antibodies stimulated ALK tyrosine phosphorylation and a different subset of antibodies inhibited basal levels of ALK phosphorylation. See also Table 18, below. […] That is, ALK antibodies that stimulated ALK tyrosine phosphorylation increased MAPK and AKT phosphorylation, whereas ALK antibodies that inhibited ALK tyrosine phosphorylation decreased basal levels of MAPK and AKT phosphorylation (FIG. 4A). Similar results were obtained in ELISA-based ALK phosphorylation assays from lysates of NB1 cells treated with ALK antibodies (FIG. 4B).
(In general: In western blotting, separated proteins are transferred to a membrane and probed.)

Data set [4] addresses murine ALK (purified mouse ALK antigen) (Mus musculus, UniProt P97793). As to the kind of experiment: Mouse ALK cross-reactivity, solid-state ELISA. In kind it is binding. Details: key: − none; + weak; ++ moderate; +++ strong. The following applies: cross-reactivity with murine ALK. On the procedure:
Purified mAbs were evaluated for their ability to bind murine ALK by solid-state ELISA, or flow cytometry on Neuro-2a cells that express low levels of endogenous murine ALK. […]
A general note: ELISA stands for enzyme-linked immunosorbent assay.

The test system of data set [5] is ALK (total protein levels in NB1 cells). In words: ALK turnover (total protein levels) by Western blot, 24 hour treatment of NB1 cells. It is filed as cell-based, human. Further details: key: − none; + weak; ++ moderate; +++ strong. The text has this:
FIG. 5 depicts a Western blot of a panel of ALK antibodies.
See also Table 18, below.

murine ALK (purified mouse ALK antigen), sequence (P97793 19-1042 limits assumed): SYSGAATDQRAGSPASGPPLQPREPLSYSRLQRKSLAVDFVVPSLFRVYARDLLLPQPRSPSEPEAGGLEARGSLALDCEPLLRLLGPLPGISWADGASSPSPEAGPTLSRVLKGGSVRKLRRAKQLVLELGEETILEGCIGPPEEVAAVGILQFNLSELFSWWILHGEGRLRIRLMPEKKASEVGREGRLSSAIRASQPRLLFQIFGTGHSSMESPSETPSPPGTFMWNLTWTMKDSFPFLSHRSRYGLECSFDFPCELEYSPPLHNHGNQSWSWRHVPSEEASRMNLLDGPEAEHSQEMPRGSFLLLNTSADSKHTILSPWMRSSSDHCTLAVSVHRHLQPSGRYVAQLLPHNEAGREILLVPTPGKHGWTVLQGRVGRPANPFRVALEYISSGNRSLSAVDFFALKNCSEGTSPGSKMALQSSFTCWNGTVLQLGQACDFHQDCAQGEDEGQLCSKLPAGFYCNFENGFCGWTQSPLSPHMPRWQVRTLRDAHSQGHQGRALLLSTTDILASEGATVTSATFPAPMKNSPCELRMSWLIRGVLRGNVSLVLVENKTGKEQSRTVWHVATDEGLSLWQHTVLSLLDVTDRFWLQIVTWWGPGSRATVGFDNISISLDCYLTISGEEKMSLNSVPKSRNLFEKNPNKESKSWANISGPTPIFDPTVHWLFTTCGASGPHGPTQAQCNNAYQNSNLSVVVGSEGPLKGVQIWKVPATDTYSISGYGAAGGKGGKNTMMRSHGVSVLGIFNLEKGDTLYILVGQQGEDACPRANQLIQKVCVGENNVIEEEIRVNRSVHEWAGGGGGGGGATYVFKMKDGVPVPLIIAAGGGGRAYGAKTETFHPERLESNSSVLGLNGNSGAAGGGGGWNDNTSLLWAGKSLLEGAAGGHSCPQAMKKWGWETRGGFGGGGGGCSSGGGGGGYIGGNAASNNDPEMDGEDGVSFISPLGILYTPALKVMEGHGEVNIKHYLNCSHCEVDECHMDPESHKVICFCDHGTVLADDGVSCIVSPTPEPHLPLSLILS
C-terminal region of human ALK ECD (T637-S1038), sequence (Q9UM73 19-1620): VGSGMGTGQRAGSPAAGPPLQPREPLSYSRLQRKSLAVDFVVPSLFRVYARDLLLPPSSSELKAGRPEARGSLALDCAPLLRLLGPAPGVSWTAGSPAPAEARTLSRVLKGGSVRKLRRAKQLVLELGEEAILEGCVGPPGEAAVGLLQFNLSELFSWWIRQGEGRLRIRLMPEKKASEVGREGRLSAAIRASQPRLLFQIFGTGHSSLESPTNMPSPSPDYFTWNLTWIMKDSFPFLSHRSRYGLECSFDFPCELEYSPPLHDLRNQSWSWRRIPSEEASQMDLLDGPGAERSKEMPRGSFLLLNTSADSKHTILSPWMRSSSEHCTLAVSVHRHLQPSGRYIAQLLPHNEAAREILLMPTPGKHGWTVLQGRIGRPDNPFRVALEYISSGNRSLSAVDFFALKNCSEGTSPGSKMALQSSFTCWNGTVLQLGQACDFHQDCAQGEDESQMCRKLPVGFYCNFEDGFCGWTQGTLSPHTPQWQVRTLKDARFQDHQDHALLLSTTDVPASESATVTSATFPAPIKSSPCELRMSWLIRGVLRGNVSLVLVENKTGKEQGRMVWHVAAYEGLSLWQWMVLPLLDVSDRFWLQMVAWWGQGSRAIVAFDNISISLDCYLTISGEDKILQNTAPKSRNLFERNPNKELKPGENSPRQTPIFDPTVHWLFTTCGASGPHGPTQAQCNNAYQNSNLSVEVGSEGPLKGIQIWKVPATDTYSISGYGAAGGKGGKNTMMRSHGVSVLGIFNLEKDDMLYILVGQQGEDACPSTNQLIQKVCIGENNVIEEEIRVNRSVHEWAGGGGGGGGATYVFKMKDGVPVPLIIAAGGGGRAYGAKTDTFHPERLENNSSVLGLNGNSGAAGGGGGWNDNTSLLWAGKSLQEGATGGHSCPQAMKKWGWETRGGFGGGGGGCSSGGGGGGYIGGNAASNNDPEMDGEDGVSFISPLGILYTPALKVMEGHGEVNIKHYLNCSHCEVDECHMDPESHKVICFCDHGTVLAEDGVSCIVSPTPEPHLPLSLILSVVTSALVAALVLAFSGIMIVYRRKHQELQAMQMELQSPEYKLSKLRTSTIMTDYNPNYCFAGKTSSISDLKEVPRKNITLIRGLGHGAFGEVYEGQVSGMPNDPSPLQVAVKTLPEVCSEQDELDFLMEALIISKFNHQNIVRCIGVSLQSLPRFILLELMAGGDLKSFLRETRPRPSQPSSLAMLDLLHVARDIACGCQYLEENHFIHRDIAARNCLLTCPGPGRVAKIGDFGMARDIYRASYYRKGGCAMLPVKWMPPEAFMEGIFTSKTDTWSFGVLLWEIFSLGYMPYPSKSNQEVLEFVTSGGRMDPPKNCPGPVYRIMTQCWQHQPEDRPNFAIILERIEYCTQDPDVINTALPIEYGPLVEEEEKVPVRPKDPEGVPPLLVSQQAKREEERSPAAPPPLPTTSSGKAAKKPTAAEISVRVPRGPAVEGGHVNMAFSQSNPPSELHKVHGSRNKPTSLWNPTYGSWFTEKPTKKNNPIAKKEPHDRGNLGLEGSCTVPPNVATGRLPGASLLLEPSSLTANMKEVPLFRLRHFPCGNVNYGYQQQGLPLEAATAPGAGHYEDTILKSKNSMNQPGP
human ALK (hALK, purified ALK protein), sequence (Q9UM73 with tags, fused parts or gaps): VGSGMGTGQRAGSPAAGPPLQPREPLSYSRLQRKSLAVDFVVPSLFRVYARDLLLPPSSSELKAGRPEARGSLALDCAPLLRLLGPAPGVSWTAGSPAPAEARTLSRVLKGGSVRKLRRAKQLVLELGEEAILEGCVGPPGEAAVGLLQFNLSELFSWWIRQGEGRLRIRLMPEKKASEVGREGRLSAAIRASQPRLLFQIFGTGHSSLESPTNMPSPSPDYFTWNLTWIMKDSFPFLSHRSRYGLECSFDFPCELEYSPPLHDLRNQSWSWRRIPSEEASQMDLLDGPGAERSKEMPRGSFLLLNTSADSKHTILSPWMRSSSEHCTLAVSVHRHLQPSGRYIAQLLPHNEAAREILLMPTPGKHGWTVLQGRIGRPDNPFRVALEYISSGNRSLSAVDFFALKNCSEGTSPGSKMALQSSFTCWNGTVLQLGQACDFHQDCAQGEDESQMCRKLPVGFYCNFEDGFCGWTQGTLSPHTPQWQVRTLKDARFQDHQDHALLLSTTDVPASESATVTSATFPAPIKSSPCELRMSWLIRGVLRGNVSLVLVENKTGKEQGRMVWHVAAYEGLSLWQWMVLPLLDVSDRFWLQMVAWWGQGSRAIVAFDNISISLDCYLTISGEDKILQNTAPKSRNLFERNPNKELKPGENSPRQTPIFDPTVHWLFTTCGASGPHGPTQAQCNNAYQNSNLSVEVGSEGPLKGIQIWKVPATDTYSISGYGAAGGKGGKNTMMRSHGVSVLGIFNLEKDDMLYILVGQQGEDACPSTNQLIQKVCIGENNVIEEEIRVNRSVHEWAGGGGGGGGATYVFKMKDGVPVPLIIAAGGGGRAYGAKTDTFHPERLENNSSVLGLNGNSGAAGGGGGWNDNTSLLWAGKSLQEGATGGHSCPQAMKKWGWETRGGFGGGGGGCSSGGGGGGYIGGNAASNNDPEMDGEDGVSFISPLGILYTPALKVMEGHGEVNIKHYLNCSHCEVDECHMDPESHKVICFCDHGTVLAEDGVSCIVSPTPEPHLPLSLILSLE

B1: Ab437: humanized anti-ALK antibody; VL SEQ ID NO: 428, VH SEQ ID NO: 431 (antibody, V domains shown)
VH: EVQLVQSGAEVKKPGTSVKLSCKASGYTFTSSAMQWVKQAPGQGLEWIGYIKPSSGYTKYNQKFKDKATLTADKSTSTAYMELSSLRSEDTAVYYCARDYYGSSSWFAYWGQGTLVTVSS
VL: EIVMTQSQATMSTSVGERATLSCKASQNVGTNVAWYQQKPGQSPKALIYGASTRATGVPARFSGSGSGTDFTLTISSVEPEDFAVYYCQQYNSYPYMYTFGQGTKLEIK
modifications: VH domain - Ab353; VL domain - Ab435
As a reminder, the Kd is the constant that tells how readily two partners part at equilibrium. In data set [1], B1 came in with a Kd of 6.08 mM.

B2: Ab320: anti-ALK monoclonal antibody; VL SEQ ID NO: 395, VH SEQ ID NO: 396 (antibody, V domains shown)
VH: QVQLQQSGAELVKPGASVKISCKASGYAFSSYWMNWVKQRPGKGLEWIGQIYPGDGDTNYNGKFKGKATLTADKSSSTAYMQLSSLTSEDSAVYFCASYYYGSKAYWGQGTLVTVSA
VL: DIQMTQSPASLAASVGETVTITCRASENIYYSLAWYQQKQGKSPQLLIYNANSLEDGVPSRFSGSGSGTQYSMKINSMQPEDTATYFCKQAYDVPFTFGSGTKLEIKR
modifications: VH domain - Ab320; VL domain - Ab320
B2: the “Bin/Domain (bin)” value in data set [2] came out at 1. In addition, the ALK phosphorylation entry in data set [3] is “no effect”. The “mouse ALK binding” value in data set [4] is on record as “++”. Also, in data set [5], the ALK turnover result is reported as “−”.

B3: Ab322: anti-ALK monoclonal antibody; VL SEQ ID NO: 399, VH SEQ ID NO: 400 (antibody, V domains shown)
VH: QVQLQQSGAELAKPGASVKLSCKASGYTFTNYWMHWVKQRPGQGLEWIGYINPSSGYTKYNQKFKDKATLTADKSSSTAYMQLSSLTYEDSAVYYCARDYYGSSSWFAYWGQGTLVTVSA
VL: DIVMTQSQRFMSTSVGDRVSVTCKASQNVGTNVAWYQQKPGQSPKALIYSASYRYSGVPDRFTGSGSGTDFTLTVSNVQSEDLAEYFCQQYNSYPYMYTFGGGTKLEIKR
modifications: VH domain - Ab322; VL domain - Ab322
As for B3, the “Bin/Domain (bin)” value in data set [2] amounted to 2. Further, the ALK phosphorylation result in data set [3] is “inhibitor”. Moreover, in data set [4], the “mouse ALK binding” value is listed as “−”. The ALK turnover result in data set [5] is on record as “−”.

B4: Ab328: anti-ALK monoclonal antibody; VL SEQ ID NO: 411, VH SEQ ID NO: 412 (antibody, V domains shown)
VH: B3 VH with N31S, Y88F
VL: B3 VL with R9K, Q42H, V75I, Q90R, Y98F
modifications: VH domain - Ab328; VL domain - Ab328
With B4, in data set [2], the “Bin/Domain (bin)” value turned out to be 2. Also, the ALK phosphorylation result in data set [3] is “weak agonist”. Also, the “mouse ALK binding” value in data set [4] is recorded as “+++”. Further, the ALK turnover entry in data set [5] is “+++”.
